Data taken from patent US20250277030A1 (Zymeworks, published 2025).

T1: human sodium-dependent phosphate transporter 2B (NaPi2b) (human, UniProt O95436 1-690)
T1 construct: UniProt ID is given as 095436 [sic]; also called hNaPi2b; Hu NaPi2b
T1 sequence: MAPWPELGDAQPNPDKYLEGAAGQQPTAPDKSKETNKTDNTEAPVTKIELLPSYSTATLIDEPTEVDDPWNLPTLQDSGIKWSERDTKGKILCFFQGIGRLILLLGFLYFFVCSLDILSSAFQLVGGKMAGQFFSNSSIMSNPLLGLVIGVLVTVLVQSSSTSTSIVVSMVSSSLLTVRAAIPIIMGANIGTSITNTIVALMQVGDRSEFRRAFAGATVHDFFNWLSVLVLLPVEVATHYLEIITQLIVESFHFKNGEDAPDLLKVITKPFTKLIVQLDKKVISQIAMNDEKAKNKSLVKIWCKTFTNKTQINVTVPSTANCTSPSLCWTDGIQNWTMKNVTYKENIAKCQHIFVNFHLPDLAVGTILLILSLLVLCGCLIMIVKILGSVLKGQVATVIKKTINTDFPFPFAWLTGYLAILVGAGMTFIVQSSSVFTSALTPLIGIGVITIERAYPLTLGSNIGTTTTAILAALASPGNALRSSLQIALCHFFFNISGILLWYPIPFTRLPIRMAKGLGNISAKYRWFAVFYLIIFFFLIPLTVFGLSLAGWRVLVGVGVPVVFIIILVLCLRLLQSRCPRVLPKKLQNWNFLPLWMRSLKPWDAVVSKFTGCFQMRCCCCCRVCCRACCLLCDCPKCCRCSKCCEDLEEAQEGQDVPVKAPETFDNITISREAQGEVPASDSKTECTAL


What was measured:
[1] = biological target: T1, human sodium-dependent phosphate …; assay: flow cytometry, IGROV-1 cells (endogenous NaPi2b), 24 h at 4 °C; apparent Kd
Protocol: (§1) IGROV-1 cells express endogenous NaPi2b at a high level.
(§2) Briefly, cells were seeded at 50,000 cells/well in conical-bottom 96-well plates and treated with test antibody for 24 hours at 4° C. to prevent internalization. […] Following incubation, cells were washed and stained with anti-Human IgG Fc AF647 conjugate (Jackson Immuno Research Labs, West Grove, PA; Cat. No. 109-605-098) at 4° C. for 30 min. Following incubation and washing, fluorescence was detected by flow cytometry on a BD LSRFortessa™ Cell Analyzer (BD Biosciences, Franklin Lake, NJ) with 1,000 minimum events collected per well. The AF647/APC-A GeoMean (fluorescence signal geometric mean, proportional to anti-Human AF647 binding) was calculated for the live cell population using FlowJo™ Version 10.8.1 (BD Biosciences, Franklin Lake, NJ) and plotted for each test antibody using GraphPad Prism Version 9 (GraphPad Software, San Diego, CA).

[2] = biological target: T1, human sodium-dependent phosphate …; assay: flow cytometry, IGROV-1 cells (endogenous NaPi2b), 24 h at 4 °C
Protocol: as §1, §2

[3] = biological target: T1, human sodium-dependent phosphate …; assay: cell-based or functional assay

Binder	Kd [1] [nM]	Bmax (MFI) [2] [MFI]	In vitro cytotoxicity EC50 (nM), HCC-78 [3] [nM]	In vitro cytotoxicity EC50 (nM), IGROV-1 [3] [nM]	In vitro cytotoxicity EC50 (nM), OVCAR-3 [3] [nM]
v29455 humanized anti-NaPi2b antibody (H2L2) (antibody, human IgG1, kappa, V domains shown) VH: QVQLVQSGAEVKKPGASVKVSCKASGFTFTSYNVHWVRQAPGQGLEWIAAISPGNGDLSYAQKFQGRVTMTVDTSTSTVYMELSSLRSEDTAVYYCARGRTGMGAVDYWGQGTLVTVSS VL: DVQMTQSPSSLSASVGDRVTITCRASQDVYSYLNWYQQKPGKAVKLLIYYTSRLQSGVPSRFSGSGSGTDYTLTISSLQPEDFATYYCQQYNIFPWTFGQGTKLEIKR	1.18	41900	–	–	–
v29457 humanized anti-NaPi2b antibody (H4L1) (antibody, human IgG1, kappa, V domains shown) VH: QVQLVQSGAEVKKPGASVKMSCKASGFTFTSYNVHWVRQAPGQGLEWIAAISPGNGDLSYAQKFQGRATLTVDRSTSTAYMELSSLRSEDTAVYYCARGRTGMGAVDYWGQGTLVTVSS VL: DIQMTQSPSSLSASVGDRVTITCRASQDVYSYLNWYQQKPGKAPKLLIYYTSRLQSGVPSRFSGSGSGTDFTLTISSLQPEDFATYYCQQYNIFPWTFGQGTKLEIKR	1.73	44500	–	–	–
v29460 humanized anti-NaPi2b antibody (H1L1) (antibody, human IgG1, kappa, V domains shown) VH: QVQLVQSGAEVKKPGASVKVSCKASGFTFTSYNVHWVRQAPGQGLEWMGAISPGNGDLSYAQKFQGRVTMTRDTSTSTVYMELSSLRSEDTAVYYCARGRTGMGAVDYWGQGTLVTVSS VL: DIQMTQSPSSLSASVGDRVTITCRASQDVYSYLNWYQQKPGKAPKLLIYYTSRLQSGVPSRFSGSGSGTDFTLTISSLQPEDFATYYCQQYNIFPWTFGQGTKLEIKR	1.67	40100	–	–	–
v29458 humanized anti-NaPi2b antibody (H3L1) (antibody, human IgG1, kappa, V domains shown) VH: QVQLVQSGAEVKKPGASVKMSCKASGFTFTSYNVHWVRQAPGQGLEWIAAISPGNGDLSYAQKFQGRATLTVDTSTSTAYMELSSLRSEDTAVYYCARGRTGMGAVDYWGQGTLVTVSS VL: DIQMTQSPSSLSASVGDRVTITCRASQDVYSYLNWYQQKPGKAPKLLIYYTSRLQSGVPSRFSGSGSGTDFTLTISSLQPEDFATYYCQQYNIFPWTFGQGTKLEIKR	1.39	40800	–	–	–
v29459 humanized anti-NaPi2b antibody (H2L1) (antibody, human IgG1, kappa, V domains shown) VH: QVQLVQSGAEVKKPGASVKVSCKASGFTFTSYNVHWVRQAPGQGLEWIAAISPGNGDLSYAQKFQGRVTMTVDTSTSTVYMELSSLRSEDTAVYYCARGRTGMGAVDYWGQGTLVTVSS VL: DIQMTQSPSSLSASVGDRVTITCRASQDVYSYLNWYQQKPGKAPKLLIYYTSRLQSGVPSRFSGSGSGTDFTLTISSLQPEDFATYYCQQYNIFPWTFGQGTKLEIKR	1.61	40900	–	–	–
v29451 humanized anti-NaPi2b antibody (H2L3) (antibody, human IgG1, kappa, V domains shown) VH: QVQLVQSGAEVKKPGASVKVSCKASGFTFTSYNVHWVRQAPGQGLEWIAAISPGNGDLSYAQKFQGRVTMTVDTSTSTVYMELSSLRSEDTAVYYCARGRTGMGAVDYWGQGTLVTVSS VL: DVQMTQSPSSLSASVGDRVTITCRASQDVYSYLNWYQQKPGKAVKLLIYYTSRLQSGVPSRFSGSGSGTDYTLTISSLQPEDIATYYCQQYNIFPWTFGQGTKLEIKR	1.49	46200	–	–	–
v18993-DL2, lifastuzumab conjugated to MT-VC-Compound 1 (DAR 4) (antibody, human IgG1, kappa, MT-VC-Compound 1 (DL2) on cysteines freed by reduction; positions not given; MT-VC-Compound 1 (DL2) on cysteines freed by reduction; positions not given; DAR 4 for the whole antibody, also called Lifa Compound 1 ADC; lifastuzumab-DL2 ADC) heavy 1: GEVQLVESGGGLVQPGGSLRLSCAASGFSFSDFAMSWVRQAPGKGLEWVATIGRVAFHTYYPDSMKGRFTISRDNSKNTLYLQMNSLRAEDTAVYYCARHRGFDVGHFDFWGQGTLVTVSSASTKGPSVFPLAPSSKSTSGGTAALGCLVKDYFPEPVTVSWNSGALTSGVHTFPAVLQSSGLYSLSSVVTVPSSSLGTQTYICNVNHKPSNTKVDKKVEPKSCDKTHTCPPCPAPELLGGPSVFLFPPKPKDTLMISRTPEVTCVVVDVSHEDPEVKFNWYVDGVEVHNAKTKPREEQYNSTYRVVSVLTVLHQDWLNGKEYKCKVSNKALPAPIEKTISKAKGQPREPQVYVYPPSRDELTKNQVSLTCLVKGFYPSDIAVEWESNGQPENNYKTTPPVLDSDGSFALVSKLTVDKSRWQQGNVFSCSVMHEALHNHYTQKSLSLSPG heavy 2: not shown light: GDIQMTQSPSSLSASVGDRVTITCRSSETLVHSSGNTYLEWYQQKPGKAPKLLIYRVSNRFSGVPSRFSGSGSGTDFTLTISSLQPEDFATYYCFQGSFNPLTFGQGTKVEIKRTVAAPSVFIFPPSDEQLKSGTASVVCLLNNFYPREAKVQWKVDNALQSGNSQESVTEQDSKDSTYSLSSTLTLSKADYEKHKVYACEVTHQGLSSPVTKSFNRGEC	3	39800	1.77	2.12	0.49

These reach a lower Kd [1]. Values come first.

Kd [1] [nM]	Bmax (MFI) [2] [MFI]	Binder	In vitro cytotoxicity EC50 (nM), HCC-78 [3] [nM]	In vitro cytotoxicity EC50 (nM), IGROV-1 [3] [nM]	In vitro cytotoxicity EC50 (nM), OVCAR-3 [3] [nM]
0.92	42300	v29454 humanized anti-NaPi2b antibody (H3L2) (antibody, human IgG1, kappa, V domains shown) VH: QVQLVQSGAEVKKPGASVKMSCKASGFTFTSYNVHWVRQAPGQGLEWIAAISPGNGDLSYAQKFQGRATLTVDTSTSTAYMELSSLRSEDTAVYYCARGRTGMGAVDYWGQGTLVTVSS VL: DVQMTQSPSSLSASVGDRVTITCRASQDVYSYLNWYQQKPGKAVKLLIYYTSRLQSGVPSRFSGSGSGTDYTLTISSLQPEDFATYYCQQYNIFPWTFGQGTKLEIKR	–	–	–
0.82	44500	v29453 humanized anti-NaPi2b antibody (H4L2) (antibody, human IgG1, kappa, V domains shown) VH: QVQLVQSGAEVKKPGASVKMSCKASGFTFTSYNVHWVRQAPGQGLEWIAAISPGNGDLSYAQKFQGRATLTVDRSTSTAYMELSSLRSEDTAVYYCARGRTGMGAVDYWGQGTLVTVSS VL: DVQMTQSPSSLSASVGDRVTITCRASQDVYSYLNWYQQKPGKAVKLLIYYTSRLQSGVPSRFSGSGSGTDYTLTISSLQPEDFATYYCQQYNIFPWTFGQGTKLEIKR	–	–	–
0.96	43800	v29450 humanized anti-NaPi2b antibody (H3L3) (antibody, human IgG1, kappa, V domains shown) VH: QVQLVQSGAEVKKPGASVKMSCKASGFTFTSYNVHWVRQAPGQGLEWIAAISPGNGDLSYAQKFQGRATLTVDTSTSTAYMELSSLRSEDTAVYYCARGRTGMGAVDYWGQGTLVTVSS VL: DVQMTQSPSSLSASVGDRVTITCRASQDVYSYLNWYQQKPGKAVKLLIYYTSRLQSGVPSRFSGSGSGTDYTLTISSLQPEDIATYYCQQYNIFPWTFGQGTKLEIKR	–	–	–
0.79	44500	v29449 humanized anti-NaPi2b antibody (H4L3) (antibody, human IgG1, kappa, V domains shown, Full-size IgG1/kappa) VH: QVQLVQSGAEVKKPGASVKMSCKASGFTFTSYNVHWVRQAPGQGLEWIAAISPGNGDLSYAQKFQGRATLTVDRSTSTAYMELSSLRSEDTAVYYCARGRTGMGAVDYWGQGTLVTVSS VL: DVQMTQSPSSLSASVGDRVTITCRASQDVYSYLNWYQQKPGKAVKLLIYYTSRLQSGVPSRFSGSGSGTDYTLTISSLQPEDIATYYCQQYNIFPWTFGQGTKLEIKR	–	–	–
